The source of these data is article doi:10.1101/2023.11.20.567910.

Test [1] has as its target HIV-1AD8 Env variants (N332 substituted) tested against V3-glycan bnAbs.
Test [2] shares this target. This is another data set of the same source.

Substance 2G12 (antibody) gave an IC50 of neutralisation: entry of Env-pseudotyped virus into Cf2-Th/CD4+CCR5+ cells (luciferase); told of most variants here, of all AD8 variants in p-0007 in test [1] greater than 10 µg/mL. In test [1], 10–1074 (antibody) came in with an IC50 of neutralisation: entry of Env-pseudotyped virus into Cf2-Th/CD4+CCR5+ cells (luciferase); told of most variants greater than 10 µg/mL. In test [2], PGT121 (antibody) yielded an IC50 of neutralisation: entry of Env-pseudotyped virus into Cf2-Th/CD4+CCR5+ cells (luciferase) of less than 1 µg/mL.
